In patent US20110135634A1, “METHODS OF INHIBITING INFECTION BY DIVERSE SUBTYPES OF DRUG-RESISTANT HIV-1” (priority 2007, published 2011):
Several values for one entry are separate records, joined by “and”; a condition that tells them apart may be missing. Identical values can stand only once.

Columns and labels:
[1] = in vivo; cited from earlier work
[2] = single administration of TAK-652 solution, healthy male volunteers; cited from earlier work
[3] = biological target: CCR5 (CC-chemokine receptor 5) (human) (UniProt P51681); test: flow cytometry competition; unlabeled PRO 140 pre-incubated with CEM.NKR-CCR5 cells, then 5 nM PRO 140-PE as competitor; MFI read-out
[4] = biological target: CCR5 (CC-chemokine receptor 5) (human) (UniProt P51681); test: flow cytometry competition; unlabeled PRO 140 pre-incubated with CEM.NKR-CCR5 cells, then 5 nM PRO 140-PE as competitor; percent cells gated read-out
[5] = biological target: CCR5 (CC-chemokine receptor 5) (human) (UniProt P51681); test: displacement of labelled ligand; PRO 140 pre-incubated with CEM.NKR-CCR5 cells, then 2 nM 3H-UK-427,857 (small molecule) as competitor; scintillation counting
[6] = biological target: CCR5 (CC-chemokine receptor 5) (human) (UniProt P51681); test: cell-based or functional assay

CCCCOCCOc1ccc(-c2ccc3c(c2)/C=C(/C(=O)Nc2ccc([S@@+]([O-])Cc4cncn4CCC)cc2)CCCN3CC(C)C)cc1.CS(=O)(=O)O [TAK-652]
oral bioavailability [1]: orally bioavailable
safety and tolerability [2]: safe and well tolerated

B1: PRO 140, humanized IgG4,κ anti-CCR5 monoclonal antibody (antibody, INN chains, looked up, V domains shown)
VH: EVQLVESGGGLVKPGGSLRLSCAASGYTFSNYWIGWVRQAPGKGLEWIGDIYPGGNYIRNNEKFKDKTTLSADTSKNTAYLQMNSLKTEDTAVYYCGSSFGSNYVFAWFTYWGQGTLVTVSS
VL: DIVMTQSPLSLPVTPGEPASISCRSSQRLLSSYGHTYLHWYLQKPGQSPQLLIYEVSNRFSGVPDRFSGSGSGTDFTLKISRVEAEDVGVYYCSQSTHVPLTFGQGTKVEIK
EC50 [3]: 2.5 nM
EC90 [4]: 17 nM
EC50 [5]: 14 nM
IC50, HIV-1 reporter virus pseudotyped with JRFL envelope, U87-CD4-CCR5 cells [6]: 2.2 nM
IC50, HIV-1 reporter virus pseudotyped with SF162 envelope, U87-CD4-CCR5 cells [6]: 1.3 nM
IC50, PhenoSense HIV Entry assay, U87-CD4/CCR5 cells, virus DUAL [6]: 0.347 µg/mL
IC50, PhenoSense HIV Entry assay, U87-CD4/CCR5 cells, virus JRCSF [6]: 0.574 µg/mL
IC50, PhenoSense HIV Entry assay, U87-CD4/CCR5 cells, virus Panel 1 (subtype A) [6]: 0.199 µg/mL
IC50, PhenoSense HIV Entry assay, U87-CD4/CCR5 cells, virus Panel 2 (subtype A) [6]: 0.305 µg/mL
IC50, PhenoSense HIV Entry assay, U87-CD4/CCR5 cells, virus Panel 3 (subtype A) [6]: 0.414 µg/mL
IC50, PhenoSense HIV Entry assay, U87-CD4/CCR5 cells, virus Panel 4 (subtype A) [6]: 0.508 µg/mL
IC50, PhenoSense HIV Entry assay, U87-CD4/CCR5 cells, virus Panel 5 (subtype C) [6]: 0.356 µg/mL
IC50, PhenoSense HIV Entry assay, U87-CD4/CCR5 cells, virus Panel 6 (subtype C) [6]: 0.318 µg/mL
IC50, PhenoSense HIV Entry assay, U87-CD4/CCR5 cells, virus Panel 7 (subtype C) [6]: 0.0955 µg/mL
IC50, PhenoSense HIV Entry assay, U87-CD4/CCR5 cells, virus Panel 8 (subtype C) [6]: 0.527 µg/mL
IC50, PhenoSense HIV Entry assay, U87-CD4/CCR5 cells, virus Panel 9 (subtype D) [6]: 0.679 µg/mL
IC50, PhenoSense HIV Entry assay, U87-CD4/CCR5 cells, virus Panel 10 (subtype D) [6]: 0.59 µg/mL
IC50, PhenoSense HIV Entry assay, U87-CD4/CCR5 cells, virus Panel 11 (subtype D) [6]: 0.365 µg/mL
IC50, PhenoSense HIV Entry assay, U87-CD4/CCR5 cells, virus Panel 12 (subtype D) [6]: 0.238 µg/mL
IC50, PhenoSense HIV Entry assay, U87-CD4/CCR5 cells, virus Panel 13 (subtype F) [6]: 0.788 µg/mL
IC50, PhenoSense HIV Entry assay, U87-CD4/CCR5 cells, virus Panel 14 (subtype F) [6]: 0.657 µg/mL
IC50, PhenoSense HIV Entry assay, U87-CD4/CCR5 cells, virus Panel 15 (subtype F) [6]: 0.332 µg/mL
IC50, PhenoSense HIV Entry assay, U87-CD4/CCR5 cells, virus Panel 16 (subtype F) [6]: 0.342 µg/mL
IC50, PhenoSense HIV Entry assay, U87-CD4/CCR5 cells, virus Panel 17 (subtype G) [6]: 0.26 µg/mL
IC50, PhenoSense HIV Entry assay, U87-CD4/CCR5 cells, virus Panel 18 (subtype G) [6]: 1.43 µg/mL
IC50, PhenoSense HIV Entry assay, U87-CD4/CCR5 cells, virus Panel 19 (subtype G) [6]: 0.384 µg/mL
IC50, PhenoSense HIV Entry assay, U87-CD4/CCR5 cells, virus Panel 20 (subtype G) [6]: 0.432 µg/mL
IC50, PhenoSense HIV Entry assay, U87-CD4/CCR5 cells, virus Panel 21 (subtype J) [6]: 0.525 µg/mL
IC50, PhenoSense HIV Entry assay, U87-CD4/CCR5 cells, virus Panel 22 (subtype J) [6]: 0.436 µg/mL
IC50, PhenoSense HIV Entry assay, U87-CD4/CCR5 cells, virus Panel 23 (subtype J) [6]: 0.269 µg/mL
IC50, PhenoSense HIV Entry assay, U87-CD4/CCR5 cells, virus Panel 24 (subtype B) [6]: 0.547 µg/mL
IC50, PhenoSense HIV Entry assay, U87-CD4/CCR5 cells, virus Panel 25 (subtype B) [6]: 0.519 µg/mL
IC50, PhenoSense HIV Entry assay, U87-CD4/CCR5 cells, virus Panel 26 (subtype B) [6]: 0.442 µg/mL
IC50, PhenoSense HIV Entry assay, U87-CD4/CCR5 cells, virus Panel 27 (subtype B) [6]: 0.575 µg/mL
IC50, PhenoSense HIV Entry assay, U87-CD4/CCR5 cells, virus Panel 31 JRCSF-N43D [6]: 0.67 µg/mL
IC90, HIV-1 reporter virus pseudotyped with JRFL envelope, U87-CD4-CCR5 cells [6]: 28 nM
IC90, HIV-1 reporter virus pseudotyped with SF162 envelope, U87-CD4-CCR5 cells [6]: 20 nM
IC90, PhenoSense HIV Entry assay, U87-CD4/CCR5 cells, virus DUAL [6]: 1.56 µg/mL
IC90, PhenoSense HIV Entry assay, U87-CD4/CCR5 cells, virus JRCSF [6]: 18.3 µg/mL
IC90, PhenoSense HIV Entry assay, U87-CD4/CCR5 cells, virus Panel 1 (subtype A) [6]: 1.69 µg/mL
IC90, PhenoSense HIV Entry assay, U87-CD4/CCR5 cells, virus Panel 2 (subtype A) [6]: 4.51 µg/mL
IC90, PhenoSense HIV Entry assay, U87-CD4/CCR5 cells, virus Panel 3 (subtype A) [6]: 3.38 µg/mL
IC90, PhenoSense HIV Entry assay, U87-CD4/CCR5 cells, virus Panel 4 (subtype A) [6]: 3.45 µg/mL
IC90, PhenoSense HIV Entry assay, U87-CD4/CCR5 cells, virus Panel 5 (subtype C) [6]: 6.52 µg/mL
IC90, PhenoSense HIV Entry assay, U87-CD4/CCR5 cells, virus Panel 6 (subtype C) [6]: 3.37 µg/mL
IC90, PhenoSense HIV Entry assay, U87-CD4/CCR5 cells, virus Panel 7 (subtype C) [6]: 0.447 µg/mL
IC90, PhenoSense HIV Entry assay, U87-CD4/CCR5 cells, virus Panel 8 (subtype C) [6]: 7.25 µg/mL
IC90, PhenoSense HIV Entry assay, U87-CD4/CCR5 cells, virus Panel 9 (subtype D) [6]: 15.3 µg/mL
IC90, PhenoSense HIV Entry assay, U87-CD4/CCR5 cells, virus Panel 10 (subtype D) [6]: 5.65 µg/mL
IC90, PhenoSense HIV Entry assay, U87-CD4/CCR5 cells, virus Panel 11 (subtype D) [6]: 4.33 µg/mL
IC90, PhenoSense HIV Entry assay, U87-CD4/CCR5 cells, virus Panel 12 (subtype D) [6]: 2.08 µg/mL
IC90, PhenoSense HIV Entry assay, U87-CD4/CCR5 cells, virus Panel 13 (subtype F) [6]: 16.7 µg/mL
IC90, PhenoSense HIV Entry assay, U87-CD4/CCR5 cells, virus Panel 14 (subtype F) [6]: 21.9 µg/mL
IC90, PhenoSense HIV Entry assay, U87-CD4/CCR5 cells, virus Panel 15 (subtype F) [6]: 5.88 µg/mL
IC90, PhenoSense HIV Entry assay, U87-CD4/CCR5 cells, virus Panel 16 (subtype F) [6]: 14 µg/mL
IC90, PhenoSense HIV Entry assay, U87-CD4/CCR5 cells, virus Panel 17 (subtype G) [6]: 2.41 µg/mL
IC90, PhenoSense HIV Entry assay, U87-CD4/CCR5 cells, virus Panel 18 (subtype G) [6]: 50.7 µg/mL
IC90, PhenoSense HIV Entry assay, U87-CD4/CCR5 cells, virus Panel 19 (subtype G) [6]: 3.51 µg/mL
IC90, PhenoSense HIV Entry assay, U87-CD4/CCR5 cells, virus Panel 20 (subtype G) [6]: 5.65 µg/mL
IC90, PhenoSense HIV Entry assay, U87-CD4/CCR5 cells, virus Panel 21 (subtype J) [6]: 6.06 µg/mL
IC90, PhenoSense HIV Entry assay, U87-CD4/CCR5 cells, virus Panel 22 (subtype J) [6]: 9.24 µg/mL
IC90, PhenoSense HIV Entry assay, U87-CD4/CCR5 cells, virus Panel 23 (subtype J) [6]: 3.3 µg/mL
IC90, PhenoSense HIV Entry assay, U87-CD4/CCR5 cells, virus Panel 24 (subtype B) [6]: 10.1 µg/mL
IC90, PhenoSense HIV Entry assay, U87-CD4/CCR5 cells, virus Panel 25 (subtype B) [6]: 12.2 µg/mL
IC90, PhenoSense HIV Entry assay, U87-CD4/CCR5 cells, virus Panel 26 (subtype B) [6]: 8.91 µg/mL
IC90, PhenoSense HIV Entry assay, U87-CD4/CCR5 cells, virus Panel 27 (subtype B) [6]: 6.5 µg/mL
IC90, PhenoSense HIV Entry assay, U87-CD4/CCR5 cells, virus Panel 31 JRCSF-N43D [6]: 16.1 µg/mL
IC90, neutralization of primary R5 HIV-1 isolates, whole virus replication assay [6]: 3 µg/mL and 4 µg/mL
